Laboratory results as given in the DeepSol protein solubility set.

Assay: soluble on expression in E. coli; label from the status in PepcDB or PDB records
In the case of “MSLRDLKTLLIVIDGVSYSVFNQFRYNLDTMNNLIENGSFGKLESVFPTITPVALASLFTGYLPLNHGITSTKIFIKGNSLSKPLSAHSSTPLKVDPIWYLLAKKGYKVVVASAPQALPDKWKLKNLTLFDPYKSKIKECSDGALLNIGNTTINEVNFDIESNNNEYTIKITDIENNTLSLKLRQNEWTSPLEVIMGCKGKEMKGTFRLKGLSNGVYLTPVSFLIPSWSNNQELQNEIWENVVKKYGMLLDGDYISLKSNIIGFSEYYETLKFAYEFFYNYSLYLLKREEWDFAITYLPIVDNIQHLLFGVDDSQSLDYVFQVYKMADNFVKAHIELADNIIICSDHGINKVKKRLYLNKFLEELNVLKTVDDKKIDWKRTKAYYGGGGIIRINLREREKFGIVGKKEFNKLIKYLTINLERLEDPDTGERIFTVIYSNETPASDRQGDIMIDGVNPKYSISSNIEKDTIFENVIPYRTTTADHGYYRNDDINGIIIFYGKNFTKKQVNMKIVDVTPTILKLYGINCKSDGKIVNEVFKNGHADSTKEGHHHHHH”, the “soluble on expression in E. coli” value is reported as “not soluble”. With “MANCQIAILYQRFQRVVFGISQLLCFSALISELTNQKEVAAWTYHYSTKAYSWNISRKYCQNRYTDLVAIQNKNEIDYLNKVLPYYSSYYWIGIRKNNKTWTWVGTKKALTNEAENWADNEPNNKRNNEDCVEIYIKSPSAPGKWNDEHCLKKKHALCYTASCQDMSCSKQGECLETIGNYTCSCYPGFYGPECEYVRECGELELPQHVLMNCSHPLGNFSFNSQCSFHCTDGYQVNGPSKLECLASGIWTNKPPQCLAAQCPPLKIPERGNMTCLHSAKAFQHQSSCSFSCEEGFALVGPEVVQCTASGVWTAPAPVCKAVQCQHLEAPNEGTMDCVHPLTAFAYGSSCKFECQPGYRVRGLDMLRCIDSGHWSAPLPTCEAISCEPLESPVHGSMDCSPSLRAFQYDTNCSFRCAEGFMLRGADIVRCDNLGQWTAPAPVCQALQCQDLPVPNEARVNCSHPFGAFRYQSVCSFTCNEGLLLVGASVLQCLATGNWNSVPPECQAIPCTPLLSPQNGTMTCVQPLGSSSYKSTCQFICDEGYSLSGPERLDCTRSGRWTDSPPMCEAIKCPELFAPEQGSLDCSDTRGEFNVGSTCHFSCNNGFKLEGPNNVECTTSGRWSATPPTCKGIASLPTPGVQCPALTTPGQGTMYCRHHPGTFGFNTTCYFGCNAGFTLIGDSTLSCRPSGQWTAVTPACRAVKCSELHVNKPIAMNCSNLWGNFSYGSICSFHCLEGQLLNGSAQTACQENGHWSTTVPTCQDDGKCPLNPHSHLGTYGVFTNAAFDPSP” the “soluble on expression in E. coli” value was “soluble”. With “MADSAELKQMVMSLRVSELQVLLGYAGRNKHGRKHELLTKALHLLKAGCSPAVQMKIKELYRRRF” the “soluble on expression in E. coli” value was “soluble”. With “MSLLIVQKYGGTSMGSIERIHNVAQRVLESVTLGHQVVVVVSAMSGETDRLLEFGKNFSHNPNKREMDRIVSVGELVSSAALSMALERYGHRAISLSGKEAGILTSSHFQNAVIQSIDTKRITELLEKNYIVVIAGFQGADIQGETTTLGRGGSDLSAVALAGALKAHLCEIYTDVDGVYTTDPRIEEKAQKIAQISYDEMLELASMGAKVLLNRSVELAKKLSVKLVTRNSFNHSEGTLIVAEKDFKGERMETPIVSGIALDKNQARVSMEGVEDRPGIAAEIFGALAEYRINVDMIVQTIGRDGKTDLDFTIVKTQIEETKQALKPFLAQMDSIDYDENIAKVSIVGVGMKSHSGVASIAFKALAKDNINIMMISTSEIKISVLIDIKYAELAVRTLHAVYQLDQEGHHHHHH” the “soluble on expression in E. coli” value was “not soluble”. With “MELSALTAVSPVDGRYGSKTIALREIFSEYGLLKYRTIVEIRWLQKLAATAEIAEVPAFSAEANQFLDDLAANFSEADALRIKEIERTTNHDVKAVEYFLKEKVADVPELHAVNEFFHFACTSEDINNTSHALMLKEARETVILPEIRNLIDAIKALAVEYRDIPLLSRTHGQPASPSTMGKEMANVAYRMERQYKQIENVEILAKINGAVGNYNAHLSAYPELDWHKFSEEFITESLGVTWNPYTTQIEPHDYIAELFDAVARFNTILIDFDRDVWGYIALGHFKQKTIAGEIGSSTMPHKVNPIDFENSEGNLGLANAVFGHLAQKLPISRWQRDLTDSTVLRNLGVGVGYAIIAYTSTLKGISKLEVNRDALLAELDKNWEVLAEPVQTVMRRYGIEKPYEKLKELTRGKRVDGEAMRNFIDGLELPEHEKARLKEMTPANYIGQAIELTDKL” the “soluble on expression in E. coli” value was “not soluble”. For “MGSDKIHHHHHHMPNPTRAFLLGPLLKGVSRSFYLTLRVLPAGMRDPIGLAYLLARAADTIADTSLIAPQRRLTLLLSLREQVNGATDDAALFQRMAAEVAGQQVQSDEKVLLESLGPALDVLSQLNEFDRKAVREIVSTLTEGMEFDLRTFPDERSGQIAALREYDELDRYTYLVAGCVGEFWTTMTYAHMPGTLKERADVMARRGVRFGKALQMTNVLRDCGKDLRIGRCYLPQTMLDRYGLSPQDLLRPDNSVRARPLMIELLRKTVDHFREALDYTLAIPASAVRLRLASLWPILIGLETLILLADNDAWLDPQKVSKVRRNKVYQIIASSLLLVPSNGLVRHAVERRIRQIEARF”, the “soluble on expression in E. coli” value was “not soluble”. In the case of “MGSDKIHHHHHHMKNTTLSSRKHRSLETKKKLLHSGYIVFINNGFQKTTITQIIKHAETGYGTAYVYFKNKDDLLTVLMEDVMNQFYDIAERSFSPQTKEEARNMIQNQVRAFLQLAEKERAILQVVEEAIGLSKEIRQKWDEIRERFINSITQDITYSQENGLAHPELNKETVARAWFAMNEIFLWTIVKNDKKLELEEIVHTLTEMYTTGLYK”, the “soluble on expression in E. coli” value is reported as “not soluble”. With “MSEKYIVTWDMLQIHARKLASRLMPSEQWKGIIAVSRGGLVPGALLARELGIRHVDTVAISSYDHDNQRELKVLKRAEGDGEGFIVIDDLVDTGGTAVAIREMYPKAHFVTIFAKPAGRPLVDDYVVDIPQDTWIEQPWDMGVVFVPPISGR” the “soluble on expression in E. coli” value was “soluble”. With “MAHHHHHHMSCITGITYLSSADINALSKGAGAGSSSGSRGTFVVREGDYVTGTITNVQGGSTPGIRLATSRGVTAFIAAVDICDEAMRVDLLEYIRRSEQLRDWNRHENGDARPPERAEAPVWLRRGALLQGTVSRCVWARCELHLQWCRPREELAGSGDDNGEKETAMPSYGNMERGGASSSVNSLNTAQVEQQVRVFATKMSRHPLFRDVSKNGAADMLRDKEIGESLLRPRTASVHRVVCEVKVGSNATNHWVISEERHANGQFYYKVEDRVVDRQWEFTDVDDFLCNFVEPMVKLIQSIRVHRRFEDSTEYVQAALDAQREVSGGFAYAFAETESKRHLYQVYSSGGNETYHFPLHITSEFIYIRLPFFHDGKASNKWVPCKSAEKVSETVKNYARAMSKRSVNGELH” the “soluble on expression in E. coli” value was “soluble”. With “PFKEVSPNSFLLDDSHALSQLLKKSYRWYSPVFSPRNVPRFADVSSITESPETLKAIRDFLVQRYRAMSPAPTHILGFDARGFLFGPMIAVELEIPFVLMRKADKNAGLLIRSEPYEKEYKEAAPEVMTIRYGSIGKGSRVVLIDDVLATGGTALSGLQLVEASDAVVVEMVSILSIPFLKAAEKIHSTANSRYKDIKFISLLSDDALTEENCGDSKNYTGPRVLSCGDVLAEHPH” the “soluble on expression in E. coli” value was “soluble”. With “MGSDKIHHHHHHMSSSDNILERLLFTIHKRLVSIPIAPNLRKNVAPIVNDWPSRPEKNTRPSTTVHLPAVDYLEQALKIGETSGDREICPMIRLLAPELSWNFDYAPHPAFPYLDEKVAFTQFVGPNDLWVSSHLAIGLTLIAPETHYPAHCHPATEIYLPLAGTGSWSMGNYYYFPRKPGELIFHPSGITHATQAQEEPMLALYIWHGDICSPSEWLPDECE” the “soluble on expression in E. coli” value was “not soluble”. In the case of “MLGLKTSIIGRRVIYFQEITSTNEFAKTSYLEEGTVIVADKQTMGHGALNRKWESPEGGLWLSIVLSPKVPQKDLPKIVFLGAVGVVETLKEFSIDGRIKWPNDVLVNYKAIAGVLVEGKGDKIVLGIGLNVNNKVPNGATSMKLELGSEVPLLSVFRSLITNLDRLYLNFLKNPMDILNLVRDNMILGVRVKILGDGSFEGIAEDIDDFGRLIIRLDSGEVKKVIYGDVSLRFL”, the “soluble on expression in E. coli” value is reported as “soluble”. For “MGHHHHHHSHMPQFSPSYSFPVQIYYEDTDFSGVVYHPNFLKYFERAREHVIGAEQLRNLWQQQQLGFAVYRSDMLCHEGVEFADIIDIRTKFYFESKYRTVWHQEIWRPNGKKPAVTATIEMVCMNQARQLAPMPAELITQLSLGM”, the “soluble on expression in E. coli” value was “soluble”. For “MAYRDRGMQKWQGMILSEHTEQLEQAKRKLSWLPQQSEECLVEILSYAVTKQHAITIQRLTEDENGYPLPFVVGRIVGVEDDRIYMRDMAGEITVLTFDDINHISEGTIEKWYR”, the “soluble on expression in E. coli” value was “not soluble”.
